Reference: US20220265709A1

Legend:
[1] = molecular target: His-tagged human BCMA (ACRO Biosystems, Cat. #: BCA-H522y) (human); assay: SPR (BIAcore T200) affinity ranking; crude sdAb captured via tag, antigen at 100 nM
[2] = molecular target: Fc-fused Cynomolgus BCMA (ACRO Biosystems, Cat. #: BCA-C5253) (cynomolgus); assay: as above

Chain of His-tagged human BCMA (ACRO Biosystems, Cat. #: BCA-H522y) (human) (Q02223 1-54): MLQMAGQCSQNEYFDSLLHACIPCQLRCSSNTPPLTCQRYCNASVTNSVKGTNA

Row | Binder | Kd [1] [nM] | koff [1] [s⁻¹] | kon [1] [M⁻¹ s⁻¹] | Kd [2] [nM] | koff [2] [s⁻¹] | kon [2] [M⁻¹ s⁻¹]
1 | anti-BCMA sdAb BCMA1 (VHH, part only, affinity tag) VHH: QVQLVESGGGSVQAGGSLRLSCKASGAIYDTNCMAWFRQTPGKEREGVATIDLGNPITYYADSVKGRFTISRDNAKNTMYLQMNSLEPEDTAMYYCAATSWWPCTTFNAGYANWGQGTQVTVSS | 10 | 0.29 | 2.9e+07 | 0.64 | 0.00043 | 670000
2 | anti-BCMA sdAb BCMA6 (VHH, part only, affinity tag) VHH: QMQLVESGGGSVQAGGSLRLSCTASGYTFDDSAMGWYRQAPGNECELVSSISSDGSTYYSDSVKGRFTISQDNAKNTMYLQMNSLKPEDTAVYSCAASSGEDGGSWSTPCHFFGYWGQGTQVTVSS | 4.9 | 0.026 | 5.4e+06 | 0.83 | 0.00091 | 1.1e+06
3 | anti-BCMA sdAb BCMA7 (VHH, part only, affinity tag) VHH: QVHLMESGGGSVQSGGSLRLSCAASGYTYSSYCMAWFRQAPGKEREGVAAIASDGSTYYTDSVKGRFTISQDNAKNTLYLQMNSLKPEDTAMYYCGADPVGCSWPDYWGQGTQVTVSS | 46 | 0.1 | 2.3e+06 | 43 | 0.056 | 1.3e+06
4 | anti-BCMA sdAb BCMA8 (VHH, part only, affinity tag) VHH: QVQLVESGGGSVQAGGSLRLSCAASGGTRSWNYMAWFRQAPGKEREDVAIIDNVGSTRYADSVKGRFTISQDTAQNTLYLQMNSLKPEDTAMYYCAARVSWCEDPPCGFDYWGQGTQVTVSS | 48 | 0.37 | 7.8e+06 | 13 | 560 | –
5 | anti-BCMA sdAb BCMA9 (VHH, part only, affinity tag) VHH: QVQLVESGGGSVQAGGSLRLSCKSSGAPYSSNCMAWFRQTPGKGREGVATIDLASHDTYYADSVKGRFTISRDNAKNTMYLQMNSLKPEDTAMYYCAATSWWPCTTFNGGYANWGQGTQVTVSS | 8.5 | 0.42 | 5e+07 | 2.4 | 0.0015 | 650000
6 | anti-BCMA sdAb BCMA10 (VHH, part only, affinity tag) VHH: QVQLAESGGGLVQPGGSLRLSCAGSGFTFSSYDMNWVRQAPGKGLERVSTTFNGDDGTNYADSVLGRFTASRDKAKNTLYLQMNSLKTEDTAVYYCAAAVPGVDWYDTTRYKYWGQGTQVTVSS | 47 | 0.13 | 2.8e+06 | 50 | 0.04 | 790000
7 | anti-BCMA sdAb BCMA11 (VHH, part only, affinity tag) VHH: QVQLVESGGGVVQPGGSLRLSCAASGFAFSNYAMTWGRQAPGQRLEWVSTIDSGGGSTTYSDSVKGRFTISRDNAKNTLYLQLNNLKSEDTAVYYCSENVDCNGDYCYRANYWGQGTQVTVSS | 53 | 0.009 | 170000 | 16 | 0.007 | 450000
8 | anti-BCMA sdAb BCMA12 (VHH, part only, affinity tag) VHH: QVHLVESGGGSVQAGGSLRLSCKSSGATYSSNCMAWFRQTPGKEREGVATIDLASHGTYYADSVKGRFTISRDNAKNTMYLQMSGLRPEDTALYYCAATSWWPCTTFNGGYASWGQGTQVTVSS | 23 | 0.025 | 1.1e+06 | 4.3 | 0.004 | 940000
9 | anti-BCMA sdAb BCMA13 (VHH, part only, affinity tag) VHH: QVHLVESGGGSVQAGGSLRLSCKASGAIYDTNCMAWFRQTPGKEREGVATIDLGNPITYYADSVKGRFTISRDNAKNTMYLQMNSLKPEDTAMYYCAATSWWPCPANNVGYANWGQGTQVTVSS | 77 | 0.053 | 690000 | 13 | 0.018 | 1.4e+06
